# Test results: a protein production outcome set (Wang et al. 2014)
# Assay: label from the status in PepcDB records
row,Sequence,protein production
1,MSNPQPEKVRVVVGDDHPLFREGVVRALSLSGSVNVVGEADDGAAALELIKAHLPDVALLDYRMPGMDGAQVAAAVRSYELPTRVLLISAHDEPAIVYQALQQGAAGFLLKDSTRTEIVKAVLDCAKGRDVVAPSLVGGLAGEIRQRAAPVAPVLSAREREVLNRIACGQSIPAIAAELYVAPSTVKTHVQRLYEKLGVSDRAAAVAEAMRQRLLD,not failed
2,KQQKDGSWLMDALIPLNELKYKLGLTTIEGEESEGFQTLNGFLTWWLGRLPHAGELVDYEGWQFEVLNVKHHRIVQVKVSRETESETTTDTNDGDANP,not failed
3,SESQSEEIDCNDKDLFKAVDAALKKYNSQNQSNNQFVLYRITEATKTVGSDTFYSFKYEIKEGDCPVQSGKTWQDCEYKDAAKAATGECTATVGKRSSTKFSVATQTCQITPAEGPVVTAQYDCLGCVHPISTQSPDLEPILRHG,not failed
4,MAKFIMVVGTSSNSGKTVLVSGICRMLSNKGYKVAPFKSQNMSLNSRVSVEDGEIAVAQYTQAMAARAEPSVHFNPILLKPKGNFVSQVIVHGNPYEDKDYNEYRSKKDDFLVKIKESIDYLDKNYDYVVIEGAGSCCEINLLNDDIANLKVAEIAGADAILVSDIDRGGVFASIYGTVQLLPENWKKLLKGFVINKFRGNIDVLKDGFEKIEELTNIPVIGTIPYDETLVLPEEDSQALDGKRLEHHHHHH,failed
5,MHRGKETSTKPKKPVTRRKDFSASGKGKKRKKRRVHKMKPWQIALICVGAFIAALLAFGLMYVYAKWSKIDTKSIKADDIIINEEVKKNKNVDLGDGYTNVALFGVDSRDGDLGEGNRTDCIIVASLNNKTKEIKMVSVYRDTLLDLSEGTYQKCNAAYSYGGPVLAINMLNMNLDLDIQDYVTVDFGAIADAVDLLGGIEIEVTEEELPYINQYIPETANSAGKAANLLQSAGLQKLDGTQATTYARIRSTAGGDFTRTERQRLVIEKMFEKAKGADIGTLNKIIDKVFPQVSTSFTLPEILKYASAYSEYKLVGNMGFPEDKYTDMLSEIGSVVVPDNLVSNVTKLHEFLFGITGYVPSSTVQTVGSNISYTASAKKSSGTGSQSSYDSGESYNDSGYTDNSGNYEGGNTGGNYDDGSMSGNSGNTGNSGETGGVGGNGSTGDNTGGTTVEPPVVPDGGTDSGGGQTEAPPEGTVQ,failed
6,MKGLLPLAWFLACSVPAVQGGLLDLKSMIEKVTGKNALTNYGFYGCYCGWGGRGTPKDGTDWCCWAHDHCYGRLEEKGCNIRTQSYKYRFAWGVVTCEPGPFCHVNLCACDRKLVYCLKRNLRSYNPQYQYFPNILCS,failed
7,MMMLNPSNGGIEGEKMKKKAKVVVIMGPTGSGKSKLAVDLASHFPVEIINADAMQIYSGLDVLTNKVTVDEQKGVPHHLLGTVSSDMEFTARDFRDFTVPLIEEIVSRNHIPVLVGGTHYYIQAVVSKFLLDDAAEDTEECCADVASVVDQDMVVESVFGRDDLSHGYELLKELDPVAANRIHPNNHRKINQYLSLHASRGVLPSKLYQGKTAENWGCINASRFDYCLICMDAETAVLDRYVEQRVDAMVDAGLLDEVYDIYKPGADYTRGLRQSIGVREFEDFLKIHLSETCAGHLTSLSNDDKVMKENLRKILNFPKDDKLRIMLEEAIDRVKLNTRRLLRRQKRRVSRLETVFGWNIHYIDATEYILSKSEESWNAQVVKPASEIIRCFLETETESGRDPTSGKSIERDLWTQYVCEACGNKILRGRHEWEHHKQGRTHRKRTTRHKNSQTYKNREVQEAEVN,failed
8,MASRGRRPEHGGPPELFYDETEARKYVRNSRMIDIQTRMAGRALELLYLPENKPCYLLDIGCGTGLSGSYLSDEGHYWVGLDISPAMLDEAVDREIEGDLLLGDMGQGIPFKPGTFDGCISISAVQWLCNANKKSENPAKRLYCFFASLFSVLVRGSRAVLQLYPENSEQLELITTQATKAGFSGGMVVDYPNSAKAKKFYLCLFSGPSTFIPEGLSENQDEVEPRESVFTNERFPLRMSRRGMVRKSRAWVLEKKERHRRQGREVRPDTQYTGRKRKPRF,failed
9,MTARARSALLDAEHIVGYTTYVELLPDEITEGADDIYNTPMCGEVSRTEEAIDRALAGNDVAIIGSGDPNVYALAGLALEIIESKGATATMLDFDVVPGVP,failed
10,MVESKRTWKEKVHVESQVEERLRKNLTLKSREATKLQKKALKTTKKEFKLSKKNYKQSLKKHKLTLKTGKEPLSINHLLDKKKFVEQKKRKKAQKIAYKRTKKVDETRVVNQVKRETKEGLKREATQKVRTTLTQEDTLNEAMTLYEKTQQAKFNMRTALKTGKTVKNLSVKTAKDTYGLGNRLFNFSRGRGFQRTPKDFTLKKQLMKQLRNRAMRFKAAKEAKKAEQGIGLIRSFFNGQKTLGKVAALILKNPISWVVLLVLFLVFLLSGVASSTQKPAIVQEEEDLTASWTYFTKLDAQHTDDNNLFYSNIDDVLFYMNYRYDDFKLLDMDSTGTKNFETILSELWTALNGKKPDYQLKTMQSLETDKKSSYFIEEEQAKHYQEIKKELGYQTLDDLLSFPVKTDALIVNKRYGYDKSKEKLTLYKGIDVLIEDNQPFHSPMNGQIVSVPDTETLVIEKEKVARLTIRGVNTLRLTKGMDVEEGTFLGNTKNSTVTFQYEKYKKETKDWFFVNPAFYFPRVTYTQTTLLGSAEFSPGASVEKRAQAVYDYLSKKGYTKEGISAILGNFSVESGINPKRAEGDYLNPPVGAHGNSWDEPSWLAMGGPQIYGGRFPNILHRGLGLGQWTDTADGGRRHTLLLDYAKGKNKKWYDLQLQLDFIFDGDAPGSRTAADNVARSKVAATIPELTTYYLTVWEGNPGDKLGERIQAAQNWFTFFSRSGTPIGGSGSEVFAQYKEKMQPLPTDRETKAGQGWPGNAYAPGNCTWYVFNRFAQLGKSIYPTMGNANQWVHNYSQTPGATLESAPKKGDAVIFTNGVAGSSTQYGHVAYVEHVNSDGSFVISEMNVSGEYSMNWRVLKKEAGEYFMRLN,failed
11,MKTVILIGALGKMGQAALTGLSKHKVITAGRSGNVDHLVDITNENSIRALYEKVGHFDAVVNTVGFCEYATFAEMTEAQWMTTVMSKMMGQINLVRIGQEYIADKGSFTLISGILNVKPIPCAIADATTSGAIDTFVKCVAYEMQRGTRINVVNPTVLTEAWDVYGDMMPGFEPVPSTLVGKAFERSVDGFINGEVLFVDALEHHHHHH,not failed
12,MAVARHETGPFATVSALASQVHPVFMLPPLATSLFGGLLSGGFWPPVAVLHAGAMFFAVYTAHVKDGYVDFHVRGEDDDHPLTGAGCRMALVGAGVGFALCTAAIWLLVGPGAALLTLPTWIIGYTHAPQLDMNPVGATMGYPAGIALALLGGYYAQVTTLTPRAVGLAAVFLLLLTGIKIIDDEQDYDYDRSIQKRTVAVVLGHQRARQLALGLFGVALLGIVGLSVALPGIPPSAAAAALVFGAVAAIAQRGDPETATMLLIRGSYLLLAVLVTAVWFRPLA,failed
13,MNKYLSFIFASVLTLTGVQLSKASNPSDSLAIVSAKWERTSSLQGIQLKQASIEGLFGGKQSISILTIGRAEGYTAFIATTDSLTTTSQLAEQSRSSAAINGSYFSIKEGFSTCYLRKNEAVIDTTTTEERHLRVNGAVHMVDNNIRIIPWNDENEKKGFPLDGDILASGPLLMQDGKTCDFTTIDREFSETRHPRSAIALTKEGDIMLVAVDGRAEGHADGMSIAELAYLLRILKAHCALNLDGGGSTTLWVNGQVVNHPSDNKKFDNKGERKVHNIIAVRRLTNP,failed
14,MSYVPPHKRLENVALRASSVPPSLLKKHNKNVGSTNTKIIYANGYISRWFLVGSDPEDSNFQLVPGSSEWRKDAEEKSLVILAKSDLGKLENPWLWVTEKVEDDIIMGFDRAKKTLLGYGGSEDVKLRLIARFGTLRDGPLTKSTLEKLKKMFRTNVPKSYVENVGYRAVHKMGFCVEETKELYHVKVSDNTRPDVTISCKCMAELNALRHLNLDVSCLDQDLDMRLMVDSKRTLTNLSENEITNLKELTDSAVVDPTVKGGLKWPLGKSSCADRYIVCGVWHTVTTTYINQTMRLQIREADRYDFRTGVGGTSSEVNFKLKALSTILLKEEDVERKCVSDMLKDCLKAVWEYFLKEV,failed
15,MRDILFIYLLTLGIKLYAYFLSGFTAILADAFHSVIDITMILILLLSERYAEKEADYQHPFGHEMARNVASLAVGVGFITFMFFELMKEGLLKVLHPASGYSNVEVALGAEVAVLALLVIAALISARRSGILNRTLLVESLNDSLSTLAAIVGVGLVWAGYPIFDGIATIAIAFIIFYNSFRLVRDNARLLIGMSPSEDFYRSVEDACLEIERVKGVHDMVGVYTGENSVHLDLHVTVDGAMTIEEADKLSVEIAEAIMAKHPEVKHISVHFCPHDGRRRKLY,failed
16,MQTFVLATNSETVSQTLCSYLEGVLDLEDSVYAVNSQPGGDRTPPDAVADGKAALEVVSDRLGDQVSVETYQIIRGNSPADDIFDIAAEVDADELVIGVRKRSQTDRLIFGSVAQDIMRQSDYPMRVVPRD,failed
17,MNDIILKSLSTLITEQRNPNSVDIDRQSTLEIVRLMNEEDKLVPLAIESCLPQISLAVEQIVQAFQQGGRLIYIGAGTSGRLGVLDASECPPTFGVSTEMVKGIIAGGECAIRHPVEGAEDNTKAVLNDLQSIHFSKNDVLVGIAASGRTPYVIAGLQYAKSLGALTISIASNPKSEMAEIADIAIETIVGPEILTGSSRLKSGTAQKMVLNMLTTASMILLGKCYENLMVDVQASNEKLKARAVRIVMQATDCNKTLAEQTLLEADQNAKLAIMMILSTLSKSEAKVLLERHQGKLRNALSK,not failed
18,MRWNICVVGAGKIGQMIAALLKTSSNYSVTVADHDLAALAVLNRMGVATKQVDAKDEAGLAKALGGFDAVISAAPFFLTPIIAKAAKAAGAHYFDLTEDVAATNAVRALAEDSQTAFMPQCGLAPGFVGIAGAALAAEFDEIDSLHMRVGALPLYPTNALKYNLTWSTDG,failed
19,MKILVAFDGSDGAQKALGFAINFSKDCERMIVLYVSRDIISESGRLTYIPDTALERRDSEDEAILARARSILASSNIPFEIIKKNSDGVDVSKVIADTAKELECNMIITGTRKLRGLSKYLLGSVSAGIIAISNVPVIVVP,failed
20,SFGVKDAIFKIKRSIAGTDSSDSTAYTTASESSPQLKDSHNPFRNKTTSERTIVEEGSLPPVRLNGYLPSTKNKLLTPEMCDEIRTLMPTRIQLYTEWNLLYSLEQHGSSLHSLYSNVAPDSKEFRRVGYVLVIKDRKNGIFGAYSNEAFHPNEHRQYTGNGECFLWKLDKVPDVNISEKEESEQEGKEGKEEGDKEERWRFSGYPYTGVNEFAIYCTSEFLSMGAGDGHYGLLCDDGLLHGVSNPCQTYGNEVLSKEGKKFSIVALEVWRVG,not failed
21,MRQIPQNHIHTRSTPFWNKETAPAGIFERHLDKGTRPDVYPRLSVMQGAVKYLGYADEHCSEPEEIMVINAGEFGVFPPEKWHNIEVMTDDTYFNIDFFVAPEVLMEGATSRKVIHAGRELEHHHHHH,not failed
22,GPYATEVELREMVDIAQEHGIVEIEERRMIQSVFDLASTTVRQVMVPRPEMIWIESGKTAGQATALCVRSGHSRIPVIGENVDDIIGIVYLKDLVQKTYYATDGGKSVLVDEVMREATFVPDSKSLDALLQEMQEDHKHIAILVDEYGGVAGLISIEDILEEIVGEIADEYDAREVAPIEKIGDRTYRVVSRL,not failed
23,ASRPHQWQTDEEGVRTGKCSFPVKYLGHVEVDESRGMHICEDAVKRLKATGKKAVKAVLWVSADGLRVVDEKTKDLIVDQTIEKVSFCAPDRNFDRAFSYICRDGTTRRWICHCFMAVKDTGERLSHAVGCAFAACLERKQKR,not failed
24,MANKKIDHREEAIELLKQDAKRILQLIKVQMDNLTLPQCPAYEEVLDTQMYGLSREINFATRLGLIEPEEGKKLISTLEKELSALHELSMSKK,not failed
